Experimental data taken from publication PMC8141032 (Oncogene, 2021).

Biological target: recombinant Flag-tagged SNF5 (UniProt Q12824 1-385)
Assay: pull-down

Sequence of recombinant Flag-tagged SNF5 (Q12824 whole entry): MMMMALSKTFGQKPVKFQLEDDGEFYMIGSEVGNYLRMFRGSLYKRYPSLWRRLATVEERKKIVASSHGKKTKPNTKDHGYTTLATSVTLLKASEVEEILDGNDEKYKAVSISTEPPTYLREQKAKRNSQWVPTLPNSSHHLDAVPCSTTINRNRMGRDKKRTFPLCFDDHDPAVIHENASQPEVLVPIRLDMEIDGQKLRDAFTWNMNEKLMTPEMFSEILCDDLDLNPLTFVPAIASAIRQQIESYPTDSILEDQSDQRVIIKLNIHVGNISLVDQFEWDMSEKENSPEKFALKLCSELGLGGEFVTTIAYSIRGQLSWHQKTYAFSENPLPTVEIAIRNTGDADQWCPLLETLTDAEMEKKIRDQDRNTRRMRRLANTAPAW

B1: recombinant SWIRM domain (amino acids 417–546 of BAF155) (domain or fragment)
chain: TAGGKEDEDPAKGDQSRSVDLGEDNVTEQTNHIIIPSYASWFDYNCIHVIERRALPEFFNGKNKSKTPEIYLAYRNFMIDTYRLNPQEYLTSTACRRNLTGDVCAVMRVHAFLEQWGLVNYQVDPESRPM
Question: Does B1 bind?
Answer: Result: binds

B2: recombinant Sumo-tagged SWIRM (amino acids 417–580 of BAF155) (domain or fragment)
chain: TAGGKEDEDPAKGDQSRSVDLGEDNVTEQTNHIIIPSYASWFDYNCIHVIERRALPEFFNGKNKSKTPEIYLAYRNFMIDTYRLNPQEYLTSTACRRNLTGDVCAVMRVHAFLEQWGLVNYQVDPESRPMAMGPPPTPHFNVLADTPSGLVPLHLRSPQVPAAQ
Question: Does B2 bind?
Answer: Result: binds
